Assay results from US20220281949A1.

Assays:
[1] = molecular target: DR1-restricted TCR HA1.7; experiment: flow cytometry: TCR-transduced primary human T cells stained with PE class II dimer and anti-CD4
[2] = molecular target: DR1-restricted TCR HA1.7; experiment: flow cytometry: HA1.7-transduced primary CD4+ T cells stained with PE wild-type DR1 dextramer and anti-CD4

percent of cells in the dextramer+ CD4+ quadrant [2] [%] | Substance | percent of cells in the dimer+ CD4+ quadrant [1] [%]
 | Control (DR1 L114W/V143M+2reps dimer) (peptide-MHC) | 0.1
0.1 | CLIP, DR1 dextramer (peptide-MHC) | 
